Laboratory results from the supplement of paper PMC9732359.
± gives the uncertainty stated by the source.

Test: protein stability index of a GFP-peptide fusion (yeast GPS) (PSI 1-4); higher = more stable; sorted into four equal gates, so the index is relative within each strain
Outline: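 Plasmids isolated from each sorting gate were PCR-amplified and Illumina-sequenced, and barcodes assigned the reads to strains. The gates, four of equal size, were set by GFP/Cherry fluorescence ratio on mid-log cultures in leucine-free medium. These cultures were yeast carrying a pooled library of tiled 17-residue yeast protein peptides fused downstream of GFP on a plasmid that also expresses Cherry. The protein stability index is the sum of every gate's read frequency times its gate number.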

TTVPFKESDDPSIPLVI [POP1]
protein stability index (doa10∆): 2.8 ± 0.068
protein stability index (pdr5∆): 3.01 ± 0.069
protein stability index (san1∆): 2.87 ± 0.054
protein stability index (ubr1∆): 2.89 ± 0.077

TVKFKHMDYDGNIVKEF [YMR129W/POM152]
protein stability index (doa10∆): 2.89 ± 0.079
protein stability index (pdr5∆): 2.39 ± 0.043
protein stability index (san1∆): 2.67 ± 0.094
protein stability index (ubr1∆): 2.99 ± 0.05

TVMFFYHNKHMMCDFGT [DIB1]
protein stability index (doa10∆): 2.58 ± 0.049
protein stability index (pdr5∆): 2.51 ± 0.046
protein stability index (san1∆): 2.6 ± 0.046
protein stability index (ubr1∆): 2.54 ± 0.032

TVRKSIACVLTVINEQQ [RPL35A]
protein stability index (doa10∆): 1.62 ± 0.077
protein stability index (pdr5∆): 2.07 ± 0.077
protein stability index (san1∆): 2.21 ± 0.079
protein stability index (ubr1∆): 2.11 ± 0.063

TWIHSEIEELKSSIQNL [SMC3]
protein stability index (doa10∆): 2.27 ± 0.11
protein stability index (pdr5∆): 2.3 ± 0.068
protein stability index (san1∆): 2.29 ± 0.21
protein stability index (ubr1∆): 3.08 ± 0.11

TYDMVGGLTKQIKEIKE [RPT6]
protein stability index (doa10∆): 2.26 ± 0.15
protein stability index (pdr5∆): 2.52 ± 0.17
protein stability index (san1∆): 1.89 ± 0.23
protein stability index (ubr1∆): 2.56 ± 0.08

TYEAIDVPGRELKYELI [RPB2]
protein stability index (doa10∆): 3.01 ± 0.15
protein stability index (pdr5∆): 3.13 ± 0.098
protein stability index (san1∆): 3.1 ± 0.18
protein stability index (ubr1∆): 3.81 ± 0.16

TYGFLTPNLWAEQPLPV [RPS2]
protein stability index (doa10∆): 1.21 ± 0.056
protein stability index (pdr5∆): 1.38 ± 0.081
protein stability index (san1∆): 1.37 ± 0.11
protein stability index (ubr1∆): 1.54 ± 0.059

TYQLCVRLRSNVIKTGI [RPN3]
protein stability index (doa10∆): 3.25 ± 0.14
protein stability index (pdr5∆): 3.35 ± 0.14
protein stability index (san1∆): 3.27 ± 0.084

TYRYVSVSVLVDRLKIG [RPS25A]
protein stability index (doa10∆): 2.28 ± 0.091
protein stability index (pdr5∆): 1.48 ± 0.08
protein stability index (san1∆): 1.72 ± 0.072
protein stability index (ubr1∆): 1.45 ± 0.039

TYSTPKRPYESSRLDAE [RPS9A]
protein stability index (doa10∆): 2.97 ± 0.073
protein stability index (pdr5∆): 3.02 ± 0.062
protein stability index (san1∆): 2.93 ± 0.082
protein stability index (ubr1∆): 2.87 ± 0.064

VAAASKILSNLVYQYKG [PRE2]
protein stability index (doa10∆): 2.62 ± 0.088
protein stability index (pdr5∆): 2.5 ± 0.056
protein stability index (san1∆): 2.54 ± 0.078
protein stability index (ubr1∆): 2.49 ± 0.051

VAALVSLTEKFSQTVAD [ECM29]
protein stability index (doa10∆): 2.77 ± 0.08
protein stability index (pdr5∆): 1.61 ± 0.059
protein stability index (san1∆): 1.8 ± 0.14
protein stability index (ubr1∆): 1.67 ± 0.085

VAGAIRAGIIIAKLSVI [RPS2]
protein stability index (doa10∆): 1.91 ± 0.1
protein stability index (pdr5∆): 2.35 ± 0.098
protein stability index (san1∆): 1.4 ± 0.13
protein stability index (ubr1∆): 2.65 ± 0.083

VAKLANWFLEVYASGNP [YML031W/NDC1]
protein stability index (doa10∆): 2.1 ± 0.069
protein stability index (pdr5∆): 2.09 ± 0.049
protein stability index (san1∆): 1.89 ± 0.12
protein stability index (ubr1∆): 1.12 ± 0.055

VAPFMIKYEFNGIPLKS [YMR129W/POM152]
protein stability index (doa10∆): 2.54 ± 0.077
protein stability index (pdr5∆): 1.91 ± 0.045
protein stability index (san1∆): 2.38 ± 0.083
protein stability index (ubr1∆): 2.75 ± 0.073

VAQGIMNAGGRNVTIQL [RPN2]
protein stability index (pdr5∆): 2.61 ± 0.21

VCMHCGKLLLDEHNELM [RPO21]
protein stability index (pdr5∆): 2.94 ± 0.18
protein stability index (san1∆): 2.77 ± 0.28
protein stability index (ubr1∆): 3.14 ± 0.084

VDENDEVLLAGFGRKGK [RPS23A]
protein stability index (doa10∆): 1.08 ± 0.084
protein stability index (pdr5∆): 1.41 ± 0.076
protein stability index (san1∆): 1.15 ± 0.11
protein stability index (ubr1∆): 1.24 ± 0.068

VDFACCTNLTNRTLYEL [GRR1]
protein stability index (doa10∆): 2.72 ± 0.061
protein stability index (pdr5∆): 2.71 ± 0.061
protein stability index (san1∆): 2.26 ± 0.06
protein stability index (ubr1∆): 2.73 ± 0.044

VDGMAKVPIGLILQRLK [RGR1]
protein stability index (doa10∆): 2.51 ± 0.1
protein stability index (pdr5∆): 2.67 ± 0.091
protein stability index (san1∆): 2.22 ± 0.15
protein stability index (ubr1∆): 2.49 ± 0.057

VDIGGKQHAVLMLGSVN [RRP4]
protein stability index (doa10∆): 2.06 ± 0.052
protein stability index (pdr5∆): 2.66 ± 0.052
protein stability index (san1∆): 2.68 ± 0.06
protein stability index (ubr1∆): 2.6 ± 0.037

VDKALIAEIKKTPLLKQ [RPL6A]
protein stability index (doa10∆): 2.64 ± 0.088
protein stability index (pdr5∆): 2.12 ± 0.28
protein stability index (san1∆): 1.92 ± 0.16

VDLLQFPWLNAIKYRPT [POP3]
protein stability index (doa10∆): 2.33 ± 0.07
protein stability index (pdr5∆): 2.42 ± 0.091
protein stability index (san1∆): 2.36 ± 0.15
protein stability index (ubr1∆): 1.84 ± 0.11

VDNENNKPAIKEDSTIQ [SWI3]
protein stability index (doa10∆): 2.84 ± 0.063
protein stability index (pdr5∆): 2.97 ± 0.069
protein stability index (san1∆): 3.08 ± 0.058
protein stability index (ubr1∆): 3.12 ± 0.062

VDPRIINSENDYSRKQL [NUT1]
protein stability index (doa10∆): 3.06 ± 0.072
protein stability index (pdr5∆): 3.38 ± 0.072
protein stability index (san1∆): 2.78 ± 0.082
protein stability index (ubr1∆): 3.06 ± 0.056

VDSGSNDAMAGGFTAYG [RPO21]
protein stability index (doa10∆): 3.26 ± 0.16
protein stability index (san1∆): 3.37 ± 0.26

VDSLDPFSEGVTFSVMP [SMC4]
protein stability index (doa10∆): 2.92 ± 0.086
protein stability index (pdr5∆): 2.39 ± 0.065
protein stability index (san1∆): 2.2 ± 0.13
protein stability index (ubr1∆): 3.1 ± 0.072

VDTGLQPQHPHYVSTSK [YLR018C/POM34]
protein stability index (doa10∆): 2.38 ± 0.05
protein stability index (pdr5∆): 2.77 ± 0.045
protein stability index (san1∆): 2.88 ± 0.05
protein stability index (ubr1∆): 2.9 ± 0.042

VDTLHNKEGTLEQREQN [SSN2]
protein stability index (doa10∆): 3.14 ± 0.15
protein stability index (pdr5∆): 3.47 ± 0.099
protein stability index (san1∆): 3.21 ± 0.058
protein stability index (ubr1∆): 3.35 ± 0.081

VEDDLVTVQTELNEEKK [SMC2]
protein stability index (doa10∆): 3.23 ± 0.16
protein stability index (pdr5∆): 2.55 ± 0.078
protein stability index (san1∆): 2.55 ± 0.08
protein stability index (ubr1∆): 2.85 ± 0.087

VEDELTESIALSSMRFK [RRI1]
protein stability index (doa10∆): 3.21 ± 0.067
protein stability index (pdr5∆): 3.38 ± 0.051
protein stability index (san1∆): 3.21 ± 0.062
protein stability index (ubr1∆): 3.28 ± 0.051

VEECPQYIRTLVSEART [SSN8]
protein stability index (doa10∆): 1.67 ± 0.1
protein stability index (pdr5∆): 1.7 ± 0.1
protein stability index (san1∆): 1.6 ± 0.14
protein stability index (ubr1∆): 1.87 ± 0.061

VEGHLFEIIDEASKKSA [FAS1]
protein stability index (doa10∆): 3.26 ± 0.17
protein stability index (pdr5∆): 3.5 ± 0.15
protein stability index (san1∆): 3.22 ± 0.06
protein stability index (ubr1∆): 3.33 ± 0.073

VELTYSLNNSDSLISGV [BRR2]
protein stability index (doa10∆): 2.73 ± 0.12
protein stability index (pdr5∆): 2.98 ± 0.085
protein stability index (san1∆): 3.14 ± 0.088
protein stability index (ubr1∆): 3.12 ± 0.051

VENGTTSIGIKCNDGVV [PRE10]
protein stability index (doa10∆): 2.14 ± 0.11
protein stability index (pdr5∆): 2.1 ± 0.089
protein stability index (san1∆): 1.35 ± 0.21
protein stability index (ubr1∆): 3.31 ± 0.22

VEQGYEDAFNFWFDKLV [YCG1]
protein stability index (doa10∆): 3.05 ± 0.12
protein stability index (pdr5∆): 2.66 ± 0.14
protein stability index (san1∆): 3.38 ± 0.1
protein stability index (ubr1∆): 2.38 ± 0.2

VETKLETKVDELRYQSH [DSN1]
protein stability index (doa10∆): 2.86 ± 0.088
protein stability index (pdr5∆): 3.22 ± 0.074
protein stability index (san1∆): 3.31 ± 0.058
protein stability index (ubr1∆): 3.08 ± 0.073

VFLFDIEKVDRENMICK [RRI2]
protein stability index (doa10∆): 3.17 ± 0.17
protein stability index (pdr5∆): 3.24 ± 0.14
protein stability index (san1∆): 2.88 ± 0.19
protein stability index (ubr1∆): 3.29 ± 0.12

VFLRNRLKYALNGREVK [RPS4A]
protein stability index (doa10∆): 2.93 ± 0.099
protein stability index (pdr5∆): 2.82 ± 0.12
protein stability index (san1∆): 2.69 ± 0.086
protein stability index (ubr1∆): 3.06 ± 0.095

VFNDAHVLNKVTLASIL [RPN1]
protein stability index (doa10∆): 2.21 ± 0.091
protein stability index (pdr5∆): 2.09 ± 0.065
protein stability index (san1∆): 2.45 ± 0.096
protein stability index (ubr1∆): 2.03 ± 0.05

VFVGTIFAGAFVFQTVF [QCR9]
protein stability index (doa10∆): 1.82 ± 0.061
protein stability index (pdr5∆): 1.4 ± 0.049
protein stability index (san1∆): 1.23 ± 0.11
protein stability index (ubr1∆): 1.5 ± 0.043

VFYQVTPEDADEEEDDE [RPL22B]
protein stability index (doa10∆): 1.84 ± 0.057
protein stability index (pdr5∆): 2.33 ± 0.068
protein stability index (san1∆): 2.63 ± 0.057
protein stability index (ubr1∆): 1.99 ± 0.071

VGASVVVVKNWGAETDE [RPS12]
protein stability index (doa10∆): 3.34 ± 0.12
protein stability index (pdr5∆): 3.12 ± 0.089
protein stability index (san1∆): 3.29 ± 0.047
protein stability index (ubr1∆): 2.97 ± 0.067

VGDIVDIKANGSIQKGM [RPL21A]
protein stability index (doa10∆): 2.35 ± 0.072
protein stability index (pdr5∆): 1.9 ± 0.065
protein stability index (san1∆): 1.62 ± 0.089
protein stability index (ubr1∆): 2.19 ± 0.047

VGKRVRYLVGGNKIQKV [RPS7A]
protein stability index (doa10∆): 1.25 ± 0.084
protein stability index (pdr5∆): 1.98 ± 0.18
protein stability index (san1∆): 1.49 ± 0.26
protein stability index (ubr1∆): 1.7 ± 0.17

VGKYDKAIELLEKALQG [SRP72]
protein stability index (pdr5∆): 1.66 ± 0.17
protein stability index (ubr1∆): 1.18 ± 0.22

VGMRYFHKQQAHFWKPV [RPL28]
protein stability index (pdr5∆): 3.02 ± 0.11
protein stability index (ubr1∆): 2.83 ± 0.09

VGTAIDSILNYAKSEFD [ECM29]
protein stability index (doa10∆): 2.76 ± 0.2
protein stability index (pdr5∆): 2.77 ± 0.1
protein stability index (san1∆): 2.92 ± 0.25
protein stability index (ubr1∆): 3.08 ± 0.088

VHTANFSERGSNTRTMT [MED2]
protein stability index (doa10∆): 3.37 ± 0.3
protein stability index (pdr5∆): 3.35 ± 0.26
protein stability index (san1∆): 3.08 ± 0.14
protein stability index (ubr1∆): 3.26 ± 0.22

VICSVTGPIEPKARQEL [RRP46]
protein stability index (doa10∆): 2.79 ± 0.081
protein stability index (pdr5∆): 3.06 ± 0.11
protein stability index (san1∆): 2.75 ± 0.051
protein stability index (ubr1∆): 2.88 ± 0.054

VIDIEIHVLEQDGGIMG [SKI6]
protein stability index (doa10∆): 2.84 ± 0.076
protein stability index (pdr5∆): 2.56 ± 0.095
protein stability index (san1∆): 2.5 ± 0.11
protein stability index (ubr1∆): 2.85 ± 0.062
